From the supplement of paper PMC9170038

The sequences below were run on K4 kissing-loop RNA reporter (assay: apparent KD of K4 kissing-loop reporter; higher = weaker reporter binding). Conditions: Eterna round: R107; input ligand: none.
Procedure: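 RNA-MaP round R107: designed RNA switches with theophylline, tryptophan, arginine or FMN aptamers are transcribed on-chip within common flanks. They are titrated with a labelled K4 kissing-loop RNA reporter in RNA-MaP buffer (100 mM Tris pH 7.5, 80 mM KCl, 4 mM MgCl2), without ligand or with the indicated ligand. Median apparent KD per design.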
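Note: bound reporter read as fluorescence of individual clusters on recovered sequencing chips by microscopy, with normalized cluster intensities fitted with a binding model.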

Sequence | apparent KD of K4 kissing-loop reporter
GGGAUGUAGGGAAGGAGCGCUUUGCGAAUAUUAAUGAGUGAUGUUCGUAGAUAUUUGUAAUGGCAGGUAGGUCGCCCUAUAUCCC [Skye_SS_AB] | 0.166 µM
GCCGUAGAUUGAAGGAGCGUGGACCUAUCGCUUGAACAGUGAUGUUGUUUAUCUAGGAAGCCGCAGGUAGGUCGCAAUCUACGGC | 0.42 µM
AUAUCUGUUCGAAAGAACGGAUCUUCGGAAGGAGCGCGUGAAAACGCAGGUAGGUCGCCGAAGUUAUUAGGUAGUGAUGUUACCU [Arginine A K4 7] | 0.113 µM
UGACUUGCCUGAGGAUAUCUAGGAUAUCCAUAAAAGGAAAUAAUAGUUCAGUGAUGUUGGAGAAGGAGAGAAGGCAGGUAAGUCU [KL-XFMN-B18 #DoubleAptamer #SwitchBubble] | 0.493 µM
UUGACCAAAUUCCGGUGAUCAUCGCCGCCGCGAGGACCGGUACGGCCGCCACUCGUCCCUAUGCUCGGAGUAGUGAUGUUAUUCA [theeternabot_sameState_KL_Trp_A_43] | 0.529 µM
CAACAUCACAACUUCUUCGUCCUAGAAGACUAGGAUAUCAGGAAACUGAGAAGGAGUCUCUGCAGUGAUGUUGCAGCUAGGACGA [[K]'-[F2]'-[F1]'-[F1]-[F2]-[K1]-[K2]-[F]''_Design2b] | 0.185 µM
UGUAUGUGAUUUGAUACCAGACCAGCUGGUGGUAUCUGAGUGAUGUUCAGGUAGGUUUGGGUCCCUUGGCAGCAAAUCGCAUACU [KL-SSTheoB26] | 0.153 µM
CACCAUGAAUUCUCUAGGAGUGAUGUUUUUCGAGGACCGGUACGGCCGCCACUCGGACGAGGACCGUGGGAGCGGCGAAGCGACU [wwegmullin] | 0.109 µM
UCACGUGCCAGUGAUGUUGGCGUACGUGAUACCAGACGAAUAAAAGUCCCUUGGCAGCACAAAUAUGCCAAGUUAGAUGUAUGAU [Exclusion Theophylline A GF 2] | 0.121 µM
GCCAGAGCGCGAAGGAGCGCCGUGACAGGUUACUGCCUUGGGCAGUGAUGUUGCUCAAUCUGGCAGGUAGGUCGCGUGCUCUGGC | 0.215 µM
CACCAUGAAUUCUCUAGGAGUGAUGUUUUUCGAGGACCGGUACGGCCGCCACUCGGACGAGGAACGUGGGAGCGGCGAAAAGACU [xzzmullin] | 0.285 µM
GUGCGGCUAGUGAUGUUGGUUGCGUGGGAAGGAGCGCAGAAACAUGCAGGUAGGUCGCCCACACCUCUGAAAGAAGGUUAAUUCA [Biistian] | 0.203 µM
CGCCACGACUGAAGGAGCGCGCCAGUGAUGUUGGACGGCUUUGUCAAGGAAACUGCACCGGUGCAGGUAGGUCGCAGUUCGUGGU [Quisbiri] | 0.537 µM
GCGAAGAAGGUUGAUACCAGUCUUGCGUGUCAAGCGCCAGUGAUGUUGGGCCUGUAGAUCGACCCUUGGCAGCAACCUCGAAAUG [theeternabot_sameState_KL_Theo_B_28] | 0.844 µM
UAAUUUAUUUCUUUUAUAUAAUAAUCAGAUACCAGUGAUUAAUGUCACCCUUGGCAGCUGUAUAGAGUGAUGUUCUAAUGCUUAA [JR_SSTheophyA_Sub022] | 0.142 µM
GUUACGCAUGGAAGGAGCGCAGGCUCAACAAGUAGCUCAGUGAUGUUGAGCAUAUUAAUUCUGCAGGUAGGUCGCCAUGUGUAAC [Ex Arginine B K4 26] | 0.612 µM

Same assay, conditions: Eterna round: R107; input ligand: theophylline 20 uM

Sequence | apparent KD of K4 kissing-loop reporter
AGCAGGAGUGAUGUUCCUGUGGCAUAAGUUCGAGGACCGGUACGGCCGCCACUCGUAACAUUAAUCCGUCCUUGAUCAGAUAAGA [theeternabot_sameState_KL_Trp_A_12] | 0.243 µM
AGGCACGAGCAAGGAUAUCGAGUAGAGUGAUGUUCUGCCUGGGUUGGCUCGGAAGAGCCUUCUCAGCGAGAAGGUGCUCGUGCCU [#2 Same State - FMN A Attempt #19 (HarryS)] | 0.923 µM
GCAGUGAUGUUGCUGGUGUGCAGUGGUAGUCGAGGACCGGUACGGCCGCCACUCGGUGAGAACCUGCUAAUACAUCGAUAAGUGA [XVIII] | 0.463 µM
AAGAGUUGACGAAAAGUCAACUCACGAGAAGGAGCGCACGAAAGUGCAGGUAGGUCGCUCAGUCCAGUGAUGUUGGAACAUAAAA [#OpenEnded 7] | 0.11 µM
UGAUACCAGACUGAUACCAGCUAGUGAUGUUAGCUGAAACAGGAACAGGCAAAGCCUGCUAGCCCUUGGCAGCAGUCUGGUAUCU [TheoBX 11 #SwitchBubble #StaticStem] | 0.152 µM
AGUUCUUGCCGAAGGAGCGAGGCAGAGUGAUGUUCUGCACGAGGUCGAAAGACCUCGCUGCCUCAGGUAGGUCGCGGCAUGAACA [Omei KL Arginine B Exc A v2] | 0.614 µM
GCUCGGGAGUGAUGUUCCAAGUGGUGUUAACGAGGACCGGUACGGCCGCCACUCGAUACGGCCGGACCGUAGGAUAAACUGGAGC [Same State - Tryptophan A (Freestyle 12)] | 0.185 µM
UUAUACUCAUGUAAAGAACUAGUAACCGAAGGAGCGACAUAAAAGUCAGGUAGGUCGCGGAUUUCUCAGUGAUGUUGAGAGCAUU [JR_SSArginiA_Sub012] | 0.185 µM
AUCGUUGCCAUUAGGACAUACGGUCCUGAACGAGGACCGGUACGGCCGCCACUCGAGCACACGAGUGAUGUUCGUGGGCAACGAU [Tryp A SS t1] | 0.136 µM
AUACGUUUAAGUGAUACCAGACAUGUGAGUGAUGUUUACAUAUAUAUUUAAUAUUUAGCUGUCCCUUGGCAGCACAGUUUAUUUA [JR_ExcTheophyB_Sub001] | 0.399 µM
UUUAUGAUGUCGGCCGCCACUGGAUUAAUAUGUGUGUAAUCUAGUUCUGAGUGAUGUUUAGAGUCCAGGACCGGGACAUUAGUUA [#12 K4 Tryptophan B Exclusion] | 0.832 µM
GGAUAUGUAACAGAUACCAGCCGACGACAGUCACUGUGUCAUGUAGUGAUGUUACAAUCUGGCCCUUGGCAGCUGUCUCUGGUUU [theeternabot_exclusion_KL_Theo_B_27] | 0.25 µM
UGGACCUGACUCGAUAAGAGUCAAUGAGAUACCAGUGACGAAAGUCACCCUUGGCAGCUCAACUGCCAGUGAUGUUGGUGGUCCU [#SwitchBubble 2 #StaticStem] | 0.703 µM
GAGCCAACCGUCGAUACCAGCCGCACGUCAUUCACUCAAUGCUGAGGAGCCAGUGAUGUUGGCCCUUGGCAGCGAAGCAACGAUC [theeternabot_exclusion_KL_Theo_B_43] | 0.0935 µM
AUGUAUGAAUUAGGAUAUCGUGAUCCAUGCAUAUAUAUGAUAAAUGGAUAUGUCGUAGUGAUGUUACGAGAAGGAGUGUGGAGUA [KL-XFMN-B1] | 0.093 µM
UGACUACAAAAGGAAUAAUCCUAGUGAUGUUAGGAUAUGCUGAUAAGCAGAAGGAACGGAGAUCGAAAGAUCUCAUAUGUAGUCU [whbob_Ex_FMNA__2th192] | 0.0985 µM
GGGAUGUAGGGAAGGAGCGCUUUGCGAAUAUUAAUGAGUGAUGUUCGUAGAUAUUUGUAAUGGCAGGUAGGUCGCCCUAUAUCCC [Skye_SS_AB] | 0.151 µM
GCCGUAGAUUGAAGGAGCGUGGACCUAUCGCUUGAACAGUGAUGUUGUUUAUCUAGGAAGCCGCAGGUAGGUCGCAAUCUACGGC | 0.337 µM
AUAUCUGUUCGAAAGAACGGAUCUUCGGAAGGAGCGCGUGAAAACGCAGGUAGGUCGCCGAAGUUAUUAGGUAGUGAUGUUACCU [Arginine A K4 7] | 0.101 µM
UGACUUGCCUGAGGAUAUCUAGGAUAUCCAUAAAAGGAAAUAAUAGUUCAGUGAUGUUGGAGAAGGAGAGAAGGCAGGUAAGUCU [KL-XFMN-B18 #DoubleAptamer #SwitchBubble] | 0.737 µM
UUGACCAAAUUCCGGUGAUCAUCGCCGCCGCGAGGACCGGUACGGCCGCCACUCGUCCCUAUGCUCGGAGUAGUGAUGUUAUUCA [theeternabot_sameState_KL_Trp_A_43] | 0.28 µM
CAACAUCACAACUUCUUCGUCCUAGAAGACUAGGAUAUCAGGAAACUGAGAAGGAGUCUCUGCAGUGAUGUUGCAGCUAGGACGA [[K]'-[F2]'-[F1]'-[F1]-[F2]-[K1]-[K2]-[F]''_Design2b] | 0.266 µM
UGUAUGUGAUUUGAUACCAGACCAGCUGGUGGUAUCUGAGUGAUGUUCAGGUAGGUUUGGGUCCCUUGGCAGCAAAUCGCAUACU [KL-SSTheoB26] | 0.15 µM
CACCAUGAAUUCUCUAGGAGUGAUGUUUUUCGAGGACCGGUACGGCCGCCACUCGGACGAGGACCGUGGGAGCGGCGAAGCGACU [wwegmullin] | 1.07 µM
